Experimental data: the DeepSol protein solubility set

assay: soluble on expression in E. coli; label from the status in PepcDB or PDB records

Question: With “GVGRLDDLKRSPLFQNVPEDAMREALKVVTERNFQPDELVVEQDAEGEALHLVTTGVVRVSRVSLGGRERVLGDIYAPGVVGETAVLAHQERSASVRALTPVRTLMLHREHFELILRRHPRVLWNLAEMLARRVTFLNDELIAFGQNTEAALTHVFANLYRQRLAAGVPQPEVLPLGTQDIMARTSSSRETVSRVLKRLEAHNILEVSPRSVTLLDLAALEALSFEGAETD” as the sequence, how does the “soluble on expression in E. coli” value read?
Answer: soluble

Question: Which “soluble on expression in E. coli” value does the source give for “MKFLTFVNRVDWWLNVKKLLMGNEAIAYGALEAGVSFATGYPGTPSTEVIETIARLKPEVFAEWAPNEKVALEEAAGVSYAGLRSLVTMKCVGLNVAADPLMSLAYSGVEGGLVILVADDPGPHTSQTEQDDRYYGKLALLPVLEPYDPQEAHDLIIYAYELSEKYKVPIIFRTTTRVNHTTADVEVGEFKELKREPKFKKDIERYVRASMEGNRKRHKWLNETLKRIEEEFNTLRFNWIEGEGRVGIIVEGAPYNYVKEVVPQIEEDFKILKLSTPHPLPRKLVVEFLRSVDVALVVEEGAPFLEEEIKVVAYEEGLNVPIYGKRTGHLPLEGELTPRLVRNAILKLLGKEREEVKLPKEVEEAKALAPKRPPVMCPGCPHRGTYRALLDALRELGYGKFDIPIHGDIGCYALSLLPPLEAIWTEFVMGASISLANGQSVAMGKKIVATIGDSTFFHNGIQPLIDAVYKDLDVLVIILDNRTTAMTGHQPHPGTGGSETGRKFREIDIESVVRGIGVKYVKTVDPYNLKETKEAIKEAMKVKGPAVIIAKRECVIPVIRRGEIGEIPVVVEDRCTGCKACILLTGCPALVYEPEKKKVRIDPLICTGCGVCNQLCPFDAI” here?
Answer: not soluble

Question: For “MPTSELTKERDLRDSKPIWADTPRTGIRSTHTPAANHYDTIVVGAGISGALVSHALHRPGQTMLIIDRREPVMGSSVASTAMIQHEIDTPLTELRKMIGKDAADRAWQRSARAVLRLEEIVSSLGISCSMKRKQALYLAGDEMGSRALKAEAAAREEAGIEARFLSTGELREQYGLDRTAAILSDISASANPAQLTAGLLRHTAAAGAEIVSKLEITDLRNLGDEVVLATADGKILSARSVVFCTGYEFLKMLESPKHQIISTWALASKKGLDLPDWLESHIVWEASDPYLYLRTDRDGRVIAGGEDEENPTAYQSERKLTAKAEAIRRKVEKLIGIDMGAPDYRWAAAFGTTTTGLPLIGAVPGMKNVYAVMGFGGNGITFSQIAAEIVAAAVNGGKDPDADLFRFGLEHHHHHH”, which “soluble on expression in E. coli” value is on record?
Answer: soluble

Question: Which “soluble on expression in E. coli” value does the source give for “MSLKSVIVPAPGKIEIREVETPVINAYQALVKTEMVALCNATDSKLIAGHFPGVDTYPLALGHENAGIVVAVGEKVRNFKVGDRAIGGLISDFGAQGINSGWGGFSEYVVVNDFEVLKEEGLATPEQGCWDSFEIQNSVPAHVQPEEAVISCTWREVLGAFKDFNLTPGKKVIVVGSGPVGLSFVKLGKLFGLGQIDIVDMLPAKLEVARRMGADNGYTPAEISTPEFIAAAGRSYDAVIDAVGLDVVVNSVLPLVKMGGDVCVYGVMTKNPTFDLSKAPYNFDLHMHQWPTRSEEKAAMTTLAQWIEEGTLSASDFITHRFKIEEIEEAFAAVKRGEVLKCVLTEGHHHHHH” here?
Answer: not soluble

Question: Which “soluble on expression in E. coli” value does the source give for “MINKTKRLMVPRTVKIPRKTYFWGPTPLPGRHKADHSVTLLTIIRDYLRLSDKEREATRILANGLVKVDGKVVKERKFGVGFMDVIEISGESYRVVYNNQGALVLVSESKDRANMKPLQVKNKVIAPGNKIQLGFHDGRVMVTEDRSISVGDVVIASLPDMKITEIIKMQPGNKAFITGGSHVGETGTISKIEIKESSSANLVHFDEGFTTVKDHVFVIGSPRFTFTMPSGEVYPLEHHHHHH” here?
Answer: not soluble

Question: For “MELQQRTLTIGLGNDIAVQTEGVGFIRGQLVADHAEINSVFKVVVKAALIVVKTLFADGYPHAIFQRFLMPDNRNRQHRADKAVGLVGIADDAEIRIAFCLISNAFFFTELIIGIGCGKADCGHFFVVFAAGSASVHKVSDFQNEFAVKPFAGKQHPHQYIGNHAGINRPPIISPQPCQQSGKRPVDYKKYAPNLRYPAGIAHGFFRQVGLLQPRKFFNHRLPGKQAAAEHRQHHQIDEDGIPIHRIMPPEHQYCGKKQCNKQSRITLLGQFGSQGAQQPQPAHRRRQPNKPARLPAVYSGLTKTSTALPRLAVLSAASSPCPDFC”, which “soluble on expression in E. coli” value is on record?
Answer: not soluble

Question: With “MLSERMLKALNDQLNRELYSAYLYFAMAAYFEDLGLEGFANWMKAQAEEEIGHALRFYNYIYDRNGRVELDEIPKPPKEWESPLKAFEAAYEHEKFISKSIYELAALAEEEKDYSTRAFLEWFINEQVEEEASVKKILDKLKFAKDSPQILFMLDKELSARAPKLPGLLMQGGE” as the sequence, how does the “soluble on expression in E. coli” value read?
Answer: soluble

Question: For “MTNSQTVSLIGPTQMAPQSTPPPPVNELWFIDAQAMFQNYANLRSFSKSNANEINTTIGGFVFGRKARKQVIHVLFAYAEDLTESNRQFLESSLSADIELVGNLNIDGQSQILPGGQFTLQLTSRMLENRSISEFLDMNVMFNNEHVLMEGASCVSRVGYEWSLRAGREQEDVKSAAERLSMASFRFTYLNAEHGLVIREQKPEAAQQKYLDKFSKGAVPYKDVIEFTAMQSLTRDTSNDTEDQKLVPTVKVTKDNKHFTRLVTIGEVVFPAFFGDSSLDLYKRSREAFNRRANNTMMVTVNGIRAGRGVTTTTSATYLPPGWVSLLHLQLPTKWTDNEQRNYRIRLHKLFNLPSSKPVLRLSQALALHSESARLTNKKLIREPHLSITNYQPVGEITTVNGPYNYHHYMQDGIDDSGWGCAYRSFQTIWSWFILNGYTDKPVPSHREIQQALVDIQDKQAKFVGSRQWIGSTEISFVLNELLKLECRFIATNSGAEVVERVRELARHFETSGTPVMIGGNMLAHTILGVDFNDTTGETKFLVLDPHYTGSEDIKTITSKGWCAWKPASFWSKDHFYNMVLPQPPSDAI”, which “soluble on expression in E. coli” value is on record?
Answer: not soluble

Question: For “MGRKWANIVAKKTAKDGATSKIYAKFGVEIYAAAKQGEPDPELNTSLKFVIERAKQAQVPKHVIDKAIDKAKGGGDETFVQGRYEGFGPNGSMIIAETLTSNVNRTIANVRTIFNKKGGNIGAAGSVSYMFDNTGVIVFKGTDPDHIFEILLEAEVDVRDVTEEEGNIVIYTEPTDLHKGIAALKAAGITEFSTTELEMIAQSEVELSPEDLEIFEGLVDALEDDDDVQKVYHNVANL”, which “soluble on expression in E. coli” value is on record?
Answer: soluble

Question: With “MTKHKERVMYYGKGDVFAYRTYLKPLTGVRTIPESPFSGRDHILFGVNVKISVGGTKLLTSFTKGDNSLVVATDSMKNFIQKHLASYTGTTIEGFLEYVATSFLKKYSHIEKISLIGEEIPFETTFAVKNGNRAASELVFKKSRNEYATAYLNMVRNEDNTLNITEQQSGLAGLQLIKVSGNSFVGFIRDEYTTLPEDSNRPLFVYLNIKWKYKNTEDSFGTNPENYVAAEQIRDIATSVFHETETLSIQHLIYLIGRRILERFPQLQEVYFESQNHTWDKIVEEIPESEGKVYTEPRPPYGFQCFTVTQEDLPHENIL” as the sequence, how does the “soluble on expression in E. coli” value read?
Answer: soluble

Question: Which “soluble on expression in E. coli” value does the source give for “MDNTRIMAAREAGVKVEANVHNFNDRLSSKERIRFKHDGIEPQTWGEAIQLRIRKQETQKGVPEGWSKRFPNGSIYDVKVLRK” here?
Answer: not soluble

Question: For “MADETDITHTKWLAYSKSLKIDLTYPGINGIGIIYNIQADQLDDYIEKQRVLRPNYAIHPSHNESEYWPITYVEPAAPNKKAIGLDMAFETNRYSSIKKARDTGVAQLTGPITLVQDAKKTPGFLFYTPFYKNGTKPESTEARRDAIDGVTYAPFIMKNLMQGTLAEKNRHVSIQIRDAGDLLFDDHDDESVLDADANPLFTKEQDISLYGRTWSFTIQSNLDFRDESAANQLEHHHHHH”, which “soluble on expression in E. coli” value is on record?
Answer: soluble

Question: Which “soluble on expression in E. coli” value does the source give for “DQLPGPVRVTVAGGGSARSAGESGFRRGGGRGARRGSDGGASDDDDDDGGGSGGGGGGRGFSTQGAGAKGGGSSGGSVQGIFHVKPYLEGRKCIDHGGEMVSRSAFERAGGSMMAKWYRSIKVLPEGVSLGKWLVSNGLP” here?
Answer: not soluble

Question: For “MMTGLTLLSCSTENDEFKKELPPTEQPSEPTGALLERFSIDQLPAKTIYALGESIDLTGLKVTGEYDDGKQRSVNVAPKQISGFSSSVPVDKQEVTITIEGKQKSFTIQVAPVRVENGVLTEVLKGYDEIILPNSVKSIPKNAFNGSKINKVTLNEGLKSIGDMAFFNSTIQEVIFPSTLEQLEENIFYYCYHLKKADLSRTKLTKLPASTFVYAGVEEVLLPATLTEIDAQAFLKTSQLKTIEIPENVRTIGLEAFRESSITTVKLPNGVTNIAQRAFYYCPELTEVTTYGTVFNDDPEAMIHPYCLEGCPQLTRFEIPQSIRILGQGLLGGNRKVTQLTIPANVTQINFSAFNNTGIKEVKVEGITPPQVFEKIWYGFPDDITVIRVPAESVEKYKTAAGWQDYTNKIQASLEHHHHHH”, which “soluble on expression in E. coli” value is on record?
Answer: soluble
